Experimental data taken from patent US20250381223A1 (UTC THERAPEUTICS SHANGHAI, published 2025).

How the values were obtained:
[1] = target: T1, recombinant Human/Cynomolgus CD28 (N-6His) (Human/Cynomolgus, UniProt P10747 19-152); test: ELISA; plate coated with CD28 (N-6His) 2 µg/mL; HRP-anti-hFc
T1 construct: Bought protein; also called antigen CD28; not shown: 6His tag at the N-terminus (N-6His)
Procedure: The binding activity of the humanized antibody to the antigen CD28 was detected by the ELISA method. The experimental procedures were as follows: [0525] 1. 30 μL of recombinant Human/Cynomolgus CD28 (N-6His) (Suzhou Novoprotein Scientific Inc., C406) at a concentration of 2 μg/mL was added to each well of an ELISA plate, and the plate was incubated at 4° C. overnight. [0526] 2. The next day, the ELISA plate was washed 3 times with PBST (containing 0.05% Tween-20). [0527] 3. 250 μL of 5% skim milk powder (dissolved in PBS) was added to each well of the ELISA plate, and the plate was incubated at room temperature for 2 h. [0528] 4. The plate was washed 3 times with PBST, antibodies with different dilution ratios were added to the ELISA plate at 30 μL/well, and the plate was incubated at room temperature for 60 min. [0529] 5. The plate was washed 3 times with PBST, 30 μL of HRP-anti-hFc antibody was added to each well, and the plate was incubated at room temperature for 60 min. [0530] 6. The plate was washed 3 times with PBST, 30 μL of TMB was added to each well, and after color development at room temperature, 30 μL of 2 M H₂SO₄ was added to each well to stop the reaction. The plate was read at 450 nm.

[2] = target: T2, CD28 (detection antigen of the BLI assay) (human, UniProt P10747 19-152, limits assumed); test: BLI (GATOR); antibody loaded at 30 nM, antigen 300-37.5 nM
T2 construct: also called the antigen
Text: The affinity kinetics of the humanized antibodies were detected using biolayer interferometry (BLI). The experimental procedures were as follows: [0533] 1. GATOR instrument was run, and the Kinetics experimental mode was selected. [0534] 2. The analysis program was run according to Table 5

EC50 [1]	Kd [2]	koff [2]	kon [2]	Binder
0.0125 µg/mL	6.54 nM	0.000582 s⁻¹	89000 M⁻¹ s⁻¹	huVH1huVL2 (antibody, human IgG1, kappa, V domains shown) VH: QVKLQESGPGLVKPSETLSITCTVSGFSLSDYGVHWVRQSPGKGLEWLGVIWAGGGTNYNSALMSRKTISKDNSKSQVFLKMSSLTAADTAVYYCARDKGYSYYYSMDYWGQGTTVTVSS VL: DIQLTQSPSSLSASVGDRVTITCRASESVEYYVTSLMQWYQQKPGKAPKLLIFAASNVESGVPSRFSGSGSGTNFTLTISSVQPEDFATYFCQQSRKVPYTFGGGTKLEIKR
0.0126 µg/mL	10.9 nM	0.000932 s⁻¹	85400 M⁻¹ s⁻¹	huVH4huVL2 (antibody, human IgG1, kappa, V domains shown) VH: QVQLQESGPGLVKPSETLSLTCTVSGFSLSDYGVHWIRQPPGKGLEWIGVIWAGGGTNYNSALKSRVTISVDTSKNQVSLKLSSVTAADTAVYYCARDKGYSYYYSMDYWGQGTTVTVSS VL: DIQLTQSPSSLSASVGDRVTITCRASESVEYYVTSLMQWYQQKPGKAPKLLIFAASNVESGVPSRFSGSGSGTNFTLTISSVQPEDFATYFCQQSRKVPYTFGGGTKLEIKR
0.0127 µg/mL	11.2 nM	0.000966 s⁻¹	86600 M⁻¹ s⁻¹	huVH4huVL3 (antibody, human IgG1, kappa, V domains shown) VH: QVQLQESGPGLVKPSETLSLTCTVSGFSLSDYGVHWIRQPPGKGLEWIGVIWAGGGTNYNSALKSRVTISVDTSKNQVSLKLSSVTAADTAVYYCARDKGYSYYYSMDYWGQGTTVTVSS VL: DIQLTQSPSSLSASVGDRVTITCRASESVEYYVTSLMQWYQQKPGKAPKLLIFAASNVESGVPSRFSGSGSGTDFTLTISSLQPEDFATYYCQQSRKVPYTFGGGTKLEIKR
0.0121 µg/mL	8.36 nM	0.000727 s⁻¹	86900 M⁻¹ s⁻¹	huVH3huVL1 (antibody, human IgG1, kappa, V domains shown) VH: QVQLQESGPGLVKPSETLSLTCTVSGFSLSDYGVHWVRQSPGKGLEWIGVIWAGGGTNYNSALKSRKTISKDNSKSQVSLKLSSVTAADTAVYYCARDKGYSYYYSMDYWGQGTTVTVSS VL: DIQLTQSPSSLSVSVGDRVTISCRASESVEYYVTSLMQWYQQKPGQAPKLLIFAASNVESGVPSRFSGSGSGTNFTLTISSVQEEDFAMYFCQQSRKVPYTFGGGTKLEIKR
0.0104 µg/mL	7.44 nM	0.000635 s⁻¹	85400 M⁻¹ s⁻¹	huVH2huVL3 (antibody, human IgG1, kappa, V domains shown) VH: QVQLQESGPGLVKPSETLSITCTVSGFSLSDYGVHWVRQPPGKGLEWLGVIWAGGGTNYNSALMSRKTISKDTSKNQVSLKMSSLTAADTAVYYCARDKGYSYYYSMDYWGQGTTVTVSS VL: DIQLTQSPSSLSASVGDRVTITCRASESVEYYVTSLMQWYQQKPGKAPKLLIFAASNVESGVPSRFSGSGSGTDFTLTISSLQPEDFATYYCQQSRKVPYTFGGGTKLEIKR
0.0126 µg/mL	6.59 nM	0.000584 s⁻¹	88700 M⁻¹ s⁻¹	huVH2huVL2 (antibody, human IgG1, kappa, V domains shown) VH: QVQLQESGPGLVKPSETLSITCTVSGFSLSDYGVHWVRQPPGKGLEWLGVIWAGGGTNYNSALMSRKTISKDTSKNQVSLKMSSLTAADTAVYYCARDKGYSYYYSMDYWGQGTTVTVSS VL: DIQLTQSPSSLSASVGDRVTITCRASESVEYYVTSLMQWYQQKPGKAPKLLIFAASNVESGVPSRFSGSGSGTNFTLTISSVQPEDFATYFCQQSRKVPYTFGGGTKLEIKR
0.00827 µg/mL	9.59 nM	0.000818 s⁻¹	85300 M⁻¹ s⁻¹	huVH3huVL3 (antibody, human IgG1, kappa, V domains shown) VH: QVQLQESGPGLVKPSETLSLTCTVSGFSLSDYGVHWVRQSPGKGLEWIGVIWAGGGTNYNSALKSRKTISKDNSKSQVSLKLSSVTAADTAVYYCARDKGYSYYYSMDYWGQGTTVTVSS VL: DIQLTQSPSSLSASVGDRVTITCRASESVEYYVTSLMQWYQQKPGKAPKLLIFAASNVESGVPSRFSGSGSGTDFTLTISSLQPEDFATYYCQQSRKVPYTFGGGTKLEIKR
